According to the supplement of paper PMC10567573:

B1: ZNF8 (parent)
chain: KPYTCSVCGKSFSRTTCLFLHLRT
B2: IRX6 (parent)
chain: YPCLEKPRIWSLAHTATASAVEGA
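Also: lentivirally expressed fusions sorted by FACS into six bins by GFP to DsRed ratio, PSI derived from sequencing read proportions per bin multiplied by bin number.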

Variants of: B1
Experiment: protein stability index of a GFP-peptide fusion (GPS, HEK-293T) (PSI 1-6); higher = more stable
Conditions: c terminus: a fixed tail appended
Y3C gave a protein stability index of 1.7.
With L20R the protein stability index was 2.42.
Variant S13A has a protein stability index of 2.43.
In the case of K10W, the protein stability index is reported as 2.83.
K10C gave a protein stability index of 1.77.
For V7I, the protein stability index was 2.2.
Work on V7H yielded a protein stability index of 1.44.
In the case of S6W, the protein stability index is reported as 1.66.
For T24S, the protein stability index was 1.89.
T24Q gave a protein stability index of 1.9.
In the case of T24D, the protein stability index is reported as 2.12.
With R23I the protein stability index was 2.05.
R23W gave a protein stability index of 1.75.
Variant L22G has a protein stability index of 2.03.
C5D showed a protein stability index of 1.96.
With C5W the protein stability index was 2.06.
In the case of R14S, the protein stability index is reported as 3.13.
R14W gave a protein stability index of 1.66.
For L18E, the protein stability index was 2.45.
In the case of T4K, the protein stability index is reported as 2.04.
T4G showed a protein stability index of 2.51.
For H21G, the protein stability index was 1.94.
Variant T16H has a protein stability index of 2.36.
In the case of S11P, the protein stability index is reported as 1.72.
In the case of S11K, the protein stability index is reported as 2.92.
In the case of C17R, the protein stability index is reported as 2.35.

Variants of: B2
Experiment: as above
Conditions: c terminus: a fixed tail appended
For S11R, the protein stability index was 2.05.
S11V gave a protein stability index of 1.99.
For S11H, the protein stability index was 1.86.
Variant S11Y has a protein stability index of 2.16.
S11I showed a protein stability index of 2.48.
For S11K, the protein stability index was 2.58.
In the case of S11M, the protein stability index is reported as 1.82.
With S11L the protein stability index was 1.87.
Work on S11E yielded a protein stability index of 1.99.
For S11F, the protein stability index was 1.94.
Variant S11N has a protein stability index of 2.31.
With S11Q the protein stability index was 1.53.
S11A showed a protein stability index of 1.3.
In the case of Y1H, the protein stability index is reported as 2.54.
Y1L showed a protein stability index of 3.59.
In the case of Y1F, the protein stability index is reported as 1.86.
Y1E gave a protein stability index of 4.33.
With Y1A the protein stability index was 4.1.
Variant Y1T has a protein stability index of 3.36.
For Y1S, the protein stability index was 3.81.
Variant Y1C has a protein stability index of 2.82.
Variant Y1P has a protein stability index of 4.08.
Variant Y1R has a protein stability index of 3.33.
Y1W showed a protein stability index of 2.82.
Y1Q showed a protein stability index of 3.79.
Variant Y1V has a protein stability index of 3.89.
With Y1K the protein stability index was 3.73.
Variant Y1I has a protein stability index of 2.88.
For Y1N, the protein stability index was 3.84.
In the case of Y1D, the protein stability index is reported as 3.84.
Variant Y1M has a protein stability index of 3.83.
With H14D the protein stability index was 2.01.
H14M showed a protein stability index of 2.34.
Work on H14L yielded a protein stability index of 3.94.
H14Q showed a protein stability index of 2.52.
H14S gave a protein stability index of 2.18.
Variant H14I has a protein stability index of 1.41.
For H14V, the protein stability index was 3.43.
In the case of H14E, the protein stability index is reported as 1.84.
H14K gave a protein stability index of 1.66.
Work on A24C yielded a protein stability index of 2.18.
Work on A24K yielded a protein stability index of 3.48.
For A24W, the protein stability index was 2.31.
A24H gave a protein stability index of 3.03.
Work on A24I yielded a protein stability index of 3.09.
Work on A24D yielded a protein stability index of 2.95.
A24R showed a protein stability index of 2.99.
Work on A24Y yielded a protein stability index of 3.06.
A24E gave a protein stability index of 2.22.
Variant A24M has a protein stability index of 2.52.
Work on A24V yielded a protein stability index of 3.01.
For A24S, the protein stability index was 1.91.
In the case of T17D, the protein stability index is reported as 2.17.
In the case of T17L, the protein stability index is reported as 1.25.
T17N gave a protein stability index of 2.37.
Variant T17K has a protein stability index of 2.
Work on T17M yielded a protein stability index of 2.36.
In the case of T17P, the protein stability index is reported as 2.72.
In the case of T17W, the protein stability index is reported as 2.29.
T17Q showed a protein stability index of 4.21.
T17E showed a protein stability index of 3.16.
Variant T17Y has a protein stability index of 2.64.
For T17G, the protein stability index was 3.55.
T17A gave a protein stability index of 1.71.
Work on P2M yielded a protein stability index of 3.06.
In the case of P2K, the protein stability index is reported as 2.82.
Variant P2I has a protein stability index of 2.96.
For P2T, the protein stability index was 3.4.
P2A showed a protein stability index of 2.82.
With P2G the protein stability index was 3.7.
For P2Y, the protein stability index was 2.69.
In the case of P2R, the protein stability index is reported as 2.37.
For P2E, the protein stability index was 2.29.
In the case of P2N, the protein stability index is reported as 4.81.
Variant P2Q has a protein stability index of 2.98.
P2L showed a protein stability index of 1.88.
With P2D the protein stability index was 2.28.
For P2H, the protein stability index was 2.9.
For W10R, the protein stability index was 4.26.
For W10F, the protein stability index was 1.98.
W10Q showed a protein stability index of 4.16.
With W10I the protein stability index was 3.27.
For W10K, the protein stability index was 4.42.
W10A gave a protein stability index of 4.14.
Work on W10T yielded a protein stability index of 4.09.
With W10G the protein stability index was 4.
W10Y gave a protein stability index of 1.62.
With W10L the protein stability index was 3.78.
In the case of W10V, the protein stability index is reported as 3.85.
W10N gave a protein stability index of 4.27.
W10P showed a protein stability index of 4.3.
Work on W10D yielded a protein stability index of 4.13.
Work on W10S yielded a protein stability index of 4.42.
With W10E the protein stability index was 4.71.
Variant W10H has a protein stability index of 4.23.
Work on E5P yielded a protein stability index of 2.63.
E5H showed a protein stability index of 2.37.
E5A showed a protein stability index of 1.95.
With E5V the protein stability index was 4.3.
E5D showed a protein stability index of 2.81.
For E5Q, the protein stability index was 3.22.
E5N showed a protein stability index of 2.34.
E5Y gave a protein stability index of 2.68.
With E5L the protein stability index was 3.24.
For E5W, the protein stability index was 1.9.
E5T gave a protein stability index of 3.97.
E5K showed a protein stability index of 2.92.
In the case of E5R, the protein stability index is reported as 3.21.
For E5S, the protein stability index was 2.98.
E5C gave a protein stability index of 3.7.
Variant A16W has a protein stability index of 3.44.
For A16V, the protein stability index was 4.23.
Work on A16T yielded a protein stability index of 3.04.
With A16D the protein stability index was 1.89.
In the case of A16K, the protein stability index is reported as 2.68.
A16H gave a protein stability index of 1.77.
Work on A16P yielded a protein stability index of 1.53.
Work on A16F yielded a protein stability index of 5.06.
In the case of A16I, the protein stability index is reported as 1.94.
A16L gave a protein stability index of 1.87.
A16Q showed a protein stability index of 2.45.
Variant A16N has a protein stability index of 3.02.
A16M showed a protein stability index of 3.88.
Variant A16S has a protein stability index of 1.93.
In the case of A16E, the protein stability index is reported as 4.29.
Variant A16C has a protein stability index of 2.12.
For L12D, the protein stability index was 2.91.
Work on L12F yielded a protein stability index of 2.26.
With L12P the protein stability index was 3.53.
With L12R the protein stability index was 2.19.
In the case of L12Q, the protein stability index is reported as 2.87.
Work on L12C yielded a protein stability index of 3.12.
Work on L12I yielded a protein stability index of 2.81.
Variant L12K has a protein stability index of 2.72.
L12M gave a protein stability index of 2.36.
With L12N the protein stability index was 1.72.
In the case of L12V, the protein stability index is reported as 1.58.
G23E showed a protein stability index of 2.33.
For G23A, the protein stability index was 2.6.
In the case of G23Y, the protein stability index is reported as 3.63.
With G23F the protein stability index was 2.97.
